Where no end group is shown, it is not given here.
Experiments:
Format in all cases: biochemical
[1] = biological target: T1, microbial transglutaminase (mTG) (Streptomyces mobaraensis, UniProt P81453); experiment: Colorimetric assay: mTG incorporation of biotinylated peptides into immobilized spermine, apparent Km; conditions: spermine plate; for Kmapp: biotin tagged peptides at 160-0 μM, Lineweaver-Burk, nr = peptide not recognized by the enzyme; for reactivity of peptide with mTG (text on Table 3): biotinylated peptides
T1 construct: purchased Covalab, France opr 0054
T1 sequence (P81453 77-407): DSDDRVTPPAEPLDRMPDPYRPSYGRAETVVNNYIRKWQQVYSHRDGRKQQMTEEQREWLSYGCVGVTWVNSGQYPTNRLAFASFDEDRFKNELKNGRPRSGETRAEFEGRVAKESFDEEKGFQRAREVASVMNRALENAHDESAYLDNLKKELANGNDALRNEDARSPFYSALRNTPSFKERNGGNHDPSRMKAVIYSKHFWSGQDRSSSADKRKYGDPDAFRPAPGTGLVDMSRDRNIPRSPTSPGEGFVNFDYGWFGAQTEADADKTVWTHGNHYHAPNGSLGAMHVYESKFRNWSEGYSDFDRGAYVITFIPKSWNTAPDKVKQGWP
Description: To produce the Covabtest-spm plate, the procedure previously described in Mily et al (2009) was used.
For the screening of the peptide listed in table 2 (Biotinylated peptides) the inventors used our colorimetric assay to measure transglutaminase 2 (TG2) cross linking activity (Mily et al, 2009) and commercialized under ref opr0033 in which mTG was used instead of TG2 and described in this experience. The principle of the method is based on the transamidation activity of mTG, using covalently coupled spermine to carboxy-substituted polystyrene plates and biotinylated peptides. The assay consists of the incorporation of the glutamine gamma-carboxamide group into the immobilized spermine. The amount of biotinylated peptide bound to the plate, as measured by the activity of streptavidin-peroxidase, is directly proportional to the TG activity. Absorbance was measured at 450 nm using the microplate reader.
In order to compare the affinity of mTG to the preferred substrate, the peptides were used at different concentrations ranging from 160, 80, 40, 20, 10, 5, 2.5 and 0 μM. Then the apparent Km were determined for each peptide and were calculated by Lineweaver-Burk method (1/Absorbance=f(1/[mTG (μM)]).
In this experiment, spermine was conjugated into the plate as described in B-II-4. Biotinylated peptides described in table 3 were incubated with mTG at different concentration (160, 80, 40, 20, 10, 5, 2.5 and 0 μM). […] Even if E seems to abolish the reactivity of the peptides this cannot be due to the negative charge only but also to the nature of the amino acides at the position X+1, X+2 and X+3. […] This is confirmed with LN-11Q8Q10 peptide.

[2] = biological target: T1, microbial transglutaminase (mTG); experiment: mTG reaction on preferred substrates and Q-to-N mutated analogues; conditions: mutated analogue peptides
Description: In order to confirm the specificity of mTG reaction on the highly reactive peptide HH12Q11 and its small derivatives DH6N5, the inventors synthesized the mutated analogue peptides in which the Gln donors (Q) were replaced by asparagine (N).

[3] = biological target: T1, microbial transglutaminase (mTG); experiment: mTG-mediated incorporation of biotin-X-cadaverine into peptides coupled on Covabtest plate; conditions: 15 nmoles peptide coupled to plate, biot-cad 0.1 mg/ml, mTG 10 ng/well
Method: The coupling method was previously described by the Applicant (V. Thomas et al, 2004) and also in the corresponding data sheet of CovAbtest-Plate™ which is commercially available from Covalab (Ref #opr0004). Briefly, in separate tubes a solution mixture containing 150 μM of each peptide dissolved in 10 mM phosphate buffer pH5, 5 mM EDAC and 5 mM NHS was incubated for 30 min under gentle shaking. The resulting activated NHS-carboxyl C-terminal moiety of each peptide (15 nmoles) was used to be conjugated in each well of CovAbtest-Plate™ previously deprotonated during 15 min with 150 μl 0.6% sodium bicarbonate per well. The microtiter plate was then incubated during 2 hrs at room temperature and washed extensively with Tris Buffer Saline.
For this experiment we used the same procedures described by V Thomas et all (2004) and also in the Covalab's commercialized kit (opr0033). Briefly the Lyophilized transglutaminase was reconstituted in 40 mM tris buffer pH 8 and 50 μl of each mTG at 200 ng/ml and at 40 ng/ml were added in the wells containing 50 μl of biotin-X-cadaverine. The enzymatic mixture was incubated for 15 min at room temperature under gentle shaking. Then the plates were washed 3 times with TBS-Tween20 followed by the addition of 100 μl of diluted HRP labeled streptavidine ( 1/2000 in TBS Tween20, 0.5% BSA) in each well. After 30 min at room temperature and 3 washings in TBS-Tween20, 100 μL of TMB substrate were added and after 5 min the colour development was stopped using 100 μl of 0.5 M sulfuric acid. Absorbances at 450 nm were measured using a microplate reader (Multiskan, Labsystems, Helsinki, Finland).
To screen the peptide library (Covalab) and identify the putative new substrates of mTG we used Covabtest-peptide (described in B-I-1) in which the peptides were covalently coupled into the plates and the amine substrate Biotin-cadeverine (biot-cad) was free in solution. In this experiment 15 nmoles of each peptide (table 2) were covalently conjugated to microtiter plate and the incorporation of biot-cad (0.1 mg/ml) catalyzed by mTG (10 ng/well) was determined following the experiment described in B-II-1. Among all the peptides tested only few peptides were recognized by mTG as Gln (Q) donor to incorporate biot-cad as shown in the FIG. 1. The enzymatic activity was different between the peptide substrates. […] When Q is replaced by N (peptide HH12N11) no reactivity of the mTG was observed confirming the specificity of the enzyme to Gln donor. Moreover, if the reactivity of the 4 peptides (HH12Q11, DH6Q7, HG14Q11 and WG10Q7) is compared, it can be observed that the reactivity of the Gln depends on its position in the peptide sequence. In the most reactive peptides Q is located at the C-terminal. […]

[4] = biological target: T1, microbial transglutaminase (mTG); experiment: mTG incorporation of biot-cad into coated BSA-peptide conjugate, with free-peptide competition; conditions: 1 μg/ml coated, mTG 100 ng/ml, biotin-cad 0.1 mg/ml
Method: 2 mg of each peptide was dissolved in 1 ml of deionized water and 150 nmoles were mixed with 0.5 mg BSA solubilized in 50 mM bicarbonate buffer pH9.5. After shaking, glutaraldehyde was added at a final concentration of 0.25% (v/v). The mixtures were kept at room temperature during 16 hrs under gentle shaking. At the end of this incubation time, sodium borohydride was added at a final concentration of 10 mg/ml to stabilize the cross-linking between BSA and the peptides. After 2 hours each mixture of peptide-BSA was dialyzed separately in PBS to remove any free peptides.
High binding 96 wells-microtiter plates (Costar) were used to immobilize BSA-peptide and to human IgG-peptide conjugates prepared as described in M-4 and M-5. For these experiments, conjugates were prepared at 50 μg/ml in 50 mM sodium carbonate buffer pH 9 and 100 μl of each solution was dispensed in the number of wells needed for the experiment. After overnight incubation at 4° C., the plates were washed extensively with Tris Buffer Saline (TBS) and were ready to be used for TG activity.
The same procedure was used as described in B-II-1
In the literature its well known that many proteins are not substrate of transglutaminase even if many glutamine residues are present in their structures (Gorman J J, Folk J E. J Biol Chem. 1984 Jul. 25; 259(14):9007-10). […]

| Substance | Kmapp [1] | reactivity of peptide with mTG (text on Table 3) [1] | also measured |
| --- | --- | --- | --- |
| CHQSYV (also: biotin, place not given here) [bCV6Q3] | nr |  |  |
| DVYSNH (Peptide DH6N5) |  |  | mTG reactivity after replacement of Q by N [2]: abolish totally the enzyme reactivity |
| DVYSNH (also: biotin, place not given here) [bDH6N5] | nr |  |  |
| DVYSQE (also: biotin, place not given here) [bDE6Q5] | nr | reactivity seems to be lost |  |
| DVYSQH (Peptide DH6Q5) |  | highly reactive with mTG |  |
| DVYSQH (also: biotin, place not given here) [bDH6Q5] | 33.10 µM |  |  |
| FWIQE (Peptide FE5Q4) |  | high reactivity with mTG | reactivity as Gln donor for mTG incorporation of biot-cad [3]: good substrate for mTG |
| FWIQE (also: biotin, place not given here) [bFE5Q4] | 5.00 µM |  |  |
| GGSPLAQSHGGS (Peptide GS12Q7) [reference compound] |  |  | reactivity as Gln donor for mTG incorporation of biot-cad [3]: low reactivity |
| HDLMWPDVYSNH (also: biotin, place not given here) [bHH12N11] | nr |  |  |
| HDLMWPDVYSNH [HH12N11] |  |  | mTG reactivity after replacement of Q by N [2]: abolish totally the enzyme reactivity; reactivity as Gln donor for mTG incorporation of biot-cad [3]: no reactivity |
| HDLMWPDVYSQH (also: biotin, place not given here) [bHH12Q11] | 3.08 µM |  |  |
| HNKSQAL (also: biotin tag, position not given here) [bHL8Q6] | nr |  |  |
| HSQALP [bHP6Q3(A)] | nr |  |  |
| KEEFQPL (also: biotin, place not given here) [bKL7Q5] | nr |  |  |
| LLTLPSVQEQN (also: biotin, place not given here) [bLN11Q8-10] | 172.00 µM |  |  |
| LLTLPSVSEQN (also: biotin, place not given here) [bLN11Q10] | nr | inhibit completely the reactivity |  |
| PLVQSH (also: biotin, place not given here) [bPH6Q4] | 14.77 µM |  |  |
| PSVQES (not fully specified; also: biotin tag, site not given here) [bPS6Q3] | nr |  |  |
| SPLKHQEY (also: biotin, place not given here) [bSY8Q6] | >50.00 µM |  |  |
| VWRSQYF (also: biotin, place not given here) [bVF7Q5] | nr |  |  |
| WPAQR [BEST4] | 0.225 µM | excellent substrates |  |
| WPDVYSQH (Peptide WH8Q7) |  | highly reactive with mTG |  |
| WPDVYSQH (also: biotin) [bWH8Q7] | 11.40 µM |  |  |
| WPLMMQD (also: biotin) [bWD7Q7] | nr |  |  |
| YEAQK [BEST2] | 0.114 µM | excellent substrates |  |
| YEAQR [BEST3] | 0.08 µM | excellent substrates |  |
| YEIQR [BEST1] | 0.086 µM | excellent substrates |  |
| YEVQK [BEST5] | 0.126 µM | excellent substrates |  |
| free BSA: non modified bovine serum albumin, control [reference compound] |  |  | incorporation of biot-cad by mTG into coated protein [4]: no reactivity |

From US11376333B2, “mTG substrates for covalent conjugation of compounds” (COVALAB, priority 2013, dated 2022)
